The assay deals with SH2 domain (143-249) of CSRC (UniProt P12931). Description: ITC. In general terms: ITC needs no label: the signal is the heat of the interaction.

Experimental findings from PMC4747798 are described below.

With “human calmodulin (from UniProt P0DP23 1-149) (natural protein)”, the stoichiometry N – broadly, a count of units in the complex or per binding partner – was found to be 1.
